Assay results taken from article PMC4634974, “Carbon Catabolite Repression and the Related Genes of ccpA, ptsH and hprK in Thermoanaerobacterium aotearoense” (PLoS ONE, 2015).
Numbering of substitutions follows the chain as printed.

T1: HPrK/P (HPr kinase/phosphatase) (Thermoanaerobacterium aotearoense, UniProt A0A0S1LJ76)
T1 construct: protein substrate recombinant HPr (KR818834) of the same strain
T1 sequence (A0A0S1LJ76 1-304): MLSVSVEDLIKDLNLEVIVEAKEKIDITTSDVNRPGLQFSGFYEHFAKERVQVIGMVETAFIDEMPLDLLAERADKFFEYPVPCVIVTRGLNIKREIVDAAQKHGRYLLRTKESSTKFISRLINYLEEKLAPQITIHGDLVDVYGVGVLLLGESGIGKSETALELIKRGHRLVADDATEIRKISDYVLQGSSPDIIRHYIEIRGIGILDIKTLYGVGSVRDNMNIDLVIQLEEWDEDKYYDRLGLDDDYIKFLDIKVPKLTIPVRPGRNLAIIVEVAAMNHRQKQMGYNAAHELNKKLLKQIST

B1: HPrM, HPr from T. aotearoense SCUT27 with Ser46 mutated to Ala, C-terminal His-tag (natural protein)
chain: MTEKTVEIKNKTGLHARPAALFVQAASKFSSQIWVEKENKKVNAKAIMGIMSLGVAQGNTVKLIADGSDEQEAIKTLVDLIDSKFGEE
B2: seryl-phosphorylated HPr (HPrSerP) from T. aotearoense SCUT27 with a C-terminal His-tag (natural protein, Thermoanaerobacterium aotearoense SCUT27, UniProt A0A0S1LJA4 1-88, looked up)
chain: B1 chain with A46S
modifications: phosphoserine at 46
notes: HPr, histidine-containing protein, Thermoanaerobacterium aotearoense SCUT27; ORF of 88 amino acids (ptsH gene, GenBank KR818834); full-length gene cloned into pET30a (NdeI/HindIII); phosphorylated at Ser46; Same chain as m3, phosphorylated at Ser46 by recombinant HPrK/P; also called HPrK/P treated HPr; source: E. coli BL21(DE3), purified (HiTrap Chelating HP, desalting column), phosphorylated in …

Key:
[1] = biological target: catabolite control protein A (CcpA) from T. aotearoense SCUT27 with a C-terminal His-tag (Thermoanaerobacterium aotearoense SCUT27) (UniProt T1SCF9); test: SPR; SPRi (Plexera V3), 25°C; CcpA printed as spots on gold-coated sensor slides by amine coupling; HPr, HPrSerP or HPrM flowed as analytes at 2 μL/s, association and dissociation 300 s each; PBST pH 7.2 running buffer; BSA as reference; Langmuir binding model
Sequence of catabolite control protein A (CcpA) from T. aotearoense SCUT27 with a C-terminal His-tag (Thermoanaerobacterium aotearoense SCUT27) (T1SCF9 entry or part of it): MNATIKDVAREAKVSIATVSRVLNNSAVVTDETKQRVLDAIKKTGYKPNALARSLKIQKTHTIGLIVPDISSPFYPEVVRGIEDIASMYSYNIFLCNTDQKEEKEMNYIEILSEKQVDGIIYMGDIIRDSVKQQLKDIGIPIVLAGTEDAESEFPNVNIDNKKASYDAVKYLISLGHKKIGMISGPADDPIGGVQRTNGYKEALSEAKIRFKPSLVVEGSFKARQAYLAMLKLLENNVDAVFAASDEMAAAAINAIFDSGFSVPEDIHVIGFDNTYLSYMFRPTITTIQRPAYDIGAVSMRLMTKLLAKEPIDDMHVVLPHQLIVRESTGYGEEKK

[2] = biological target: T1, HPrK/P (HPr kinase/phosphatase); test: HPr phosphorylation, Phos-tag SDS-PAGE; format: biochemical; settings: 5 mM ATP, 50 uM HPr, 5 mM MgCl2, 10 mM NaCl, 100 mM Tris-Cl pH 7.0, 37 C, 10 min
[3] = biological target: T2, catabolite control protein A (CcpA) from T. aotearoense SCUT27 with a C-terminal His-tag (Thermoanaerobacterium aotearoense SCUT27, UniProt T1SCF9 1-336); test: SPR; SPRi (Plexera V3), 25°C; CcpA printed as spots on gold-coated sensor slides by amine coupling; HPr, HPrSerP or HPrM flowed as analytes at 2 μL/s, association and dissociation 300 s each; PBST pH 7.2 running buffer; BSA as reference; Langmuir binding model; settings: both partners purified
T2 construct: CcpA, catabolite control protein A, Thermoanaerobacterium aotearoense SCUT27; ORF of 336 amino acids (ccpA gene, 1011 bp, GenBank KC899078); full-length gene cloned into pET30a (NdeI/XhoI); The genomic primer begins with GTG, the expression primer Tc-F with ATG; Cloning through XhoI of pET30a probably adds LE before the His-tag (surmised); also called pET-CcpA product; source: E. coli BL21(DE3), …
T2 sequence (T1SCF9 entry or part of it): as above

Molecule	Kd [1] [nM]	koff [1] [s⁻¹]	kon [1] [M⁻¹ s⁻¹]	HPr phosphorylation, Phos-tag SDS-PAGE [2]	Kd [3] [nM]	koff [3] [s⁻¹]	kon [3] [M⁻¹ s⁻¹]
Histidine-containing Protein (HPr) from T. aotearoense SCUT27 with a C-terminal His-tag, not phosphorylated (natural protein)	2290	0.000922	403				
Nc1ncnc2c1ncn2[C@@H]1O[C@H](COP(=O)(O)OP(=O)(O)OP(=O)(O)O)[C@@H](O)[C@H]1O [ATP]				HPrK/P lost its kinase activity when there was no ATP in the reaction mixture			
B1					6010	0.000576	95.8
B2					2.22	7.78e-07	350
